The data set can be described thus: protein stability index of a GFP-peptide fusion (yeast GPS) (PSI 1-4); higher = more stable; sorted into four equal gates, so the index is relative within each strain. The method in brief: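 Tiled 17-residue yeast protein peptides were fused downstream of GFP in a plasmid that also expresses Cherry, and the pooled library was carried in yeast. Mid-log cultures in leucine-free medium were sorted into four equal gates by GFP/Cherry fluorescence ratio, and plasmids from each gate were PCR-amplified and Illumina-sequenced, with reads assigned to strains by barcodes. The protein stability index for each peptide was each gate's read frequency times its gate number, summed.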

These results are taken from the supplement of paper PMC9732359.

± gives the uncertainty stated by the source.

Consider SGLNRAISTGNWSLKRF [RET1], for which the protein stability index came out at 2.56 ± 0.07 (doa10∆), 2.57 ± 0.078 (pdr5∆), 2.67 ± 0.087 (san1∆) and 2.41 ± 0.054 (ubr1∆).

For the sequence RNSVKLLSKLLLKHPFK [YCS4], the protein stability index was 2.41 ± 0.042 (doa10∆), 2.1 ± 0.038 (pdr5∆), 1.92 ± 0.056 (san1∆) and 2.07 ± 0.04 (ubr1∆).

For PFKGEVVDGTVVSCSQH [RPB7], the protein stability index was 3.04 ± 0.14 (doa10∆), 3.08 ± 0.1 (pdr5∆), 2.92 ± 0.088 (san1∆) and 2.56 ± 0.12 (ubr1∆).

On to QMDGFDNLGQTKIIMAT [RPT4], for which the protein stability index is, setting by setting: (doa10∆) 3.54 ± 0.091; (pdr5∆) 3.55 ± 0.11; (san1∆) 3.66 ± 0.082; (ubr1∆) 3.48 ± 0.098.

Turning to ATTSVMMVNNQTMQLIK [SRB6], the protein stability index worked out at 3.09 ± 0.16 (doa10∆), 2.1 ± 0.17 (pdr5∆) and 2.12 ± 0.1 (san1∆).

Regarding VHDKVLEDMVFPTEIVG [RPS7B], the protein stability index is, setting by setting: (doa10∆) 2.63 ± 0.13; (pdr5∆) 2.83 ± 0.08; (san1∆) 2.56 ± 0.083; (ubr1∆) 3.06 ± 0.054.

For QNPLPTRFEVELEFIQS [SOH1], the protein stability index was determined as 2.38 ± 0.083 (doa10∆), 2.39 ± 0.073 (pdr5∆), 2.29 ± 0.084 (san1∆) and 2.83 ± 0.078 (ubr1∆).

KDGRIRIFKITEKLSPL [YGL100W/SEH1]: the protein stability index reads like this: (doa10∆) 2.84 ± 0.079; (pdr5∆) 2.85 ± 0.09; (san1∆) 2.57 ± 0.08; (ubr1∆) 2.79 ± 0.045.

With LREKEDKKNSSDPNNQS [YJL039C/NUP192], the protein stability index runs as follows: (doa10∆) 3.06 ± 0.11; (pdr5∆) 3.09 ± 0.13; (san1∆) 3.17 ± 0.099; (ubr1∆) 3.33 ± 0.071.

With RGKDGKLHVAAKLPGHK [YGL100W/SEH1], the protein stability index came to 3.31 ± 0.14 (doa10∆), 3.13 ± 0.14 (pdr5∆) and 2.7 ± 0.16 (ubr1∆).

The sequence ELYEVDVLKVNTLVRPN [RPL25] registered a protein stability index (doa10∆) of 2.52 ± 0.095, a protein stability index (pdr5∆) of 2.67 ± 0.099, a protein stability index (san1∆) of 2.72 ± 0.12 and a protein stability index (ubr1∆) of 2.87 ± 0.088.

As for KDRISHEVVQDDSFSLL [PCI8], the protein stability index (doa10∆) came to 3.19 ± 0.082, the protein stability index (pdr5∆) was 3.46 ± 0.071, the protein stability index (san1∆) is 3.19 ± 0.056 and the protein stability index (ubr1∆) is 3.05 ± 0.075.

For the sequence NKKGRGHVKPVRCVNCS [RPS26A], the protein stability index amounted to 3.18 ± 0.065 (doa10∆), 2.98 ± 0.077 (pdr5∆), 2.98 ± 0.085 (san1∆) and 3.02 ± 0.076 (ubr1∆).

Turning to AQFIVISLRNNMFELAQ [SMC4], the protein stability index runs as follows: (doa10∆) 2.14 ± 0.11; (pdr5∆) 1.67 ± 0.082; (san1∆) 1.51 ± 0.092; (ubr1∆) 2.02 ± 0.09.

On to TDKIGRSVPAPGKGILT [FAS2], for which the protein stability index was determined as 2.95 ± 0.17 (doa10∆), 3.16 ± 0.13 (pdr5∆), 2.79 ± 0.2 (san1∆) and 3.21 ± 0.12 (ubr1∆).

For the sequence EAELSSTKVENSAIIQN [YIL149C/MLP2], the protein stability index runs as follows: (doa10∆) 2.77 ± 0.11; (pdr5∆) 2.87 ± 0.069; (san1∆) 2.98 ± 0.056; (ubr1∆) 3.13 ± 0.062.

In the case of NTNNNNSTGHSSNTNNN [SWI1], the protein stability index was determined as 2.63 ± 0.049 (doa10∆), 2.29 ± 0.05 (pdr5∆), 2.41 ± 0.058 (san1∆) and 1.93 ± 0.05 (ubr1∆).

Regarding GIIVAVDSRATAGNWVA [PRE2], the protein stability index was determined as 1.14 ± 0.064 (doa10∆), 1.46 ± 0.079 (pdr5∆), 1.24 ± 0.13 (san1∆) and 1.54 ± 0.082 (ubr1∆).

As for IRTILVNIHHLLNEYRP [MED7], the protein stability index turned out to be 2.21 ± 0.064 (doa10∆), 2 ± 0.065 (pdr5∆), 1.65 ± 0.12 (san1∆) and 1.58 ± 0.053 (ubr1∆).

As to YSFGGLLMRLEGNYRNL [RPB8], the protein stability index by setting is: (doa10∆) 1.8 ± 0.12; (pdr5∆) 2.55 ± 0.12; (san1∆) 3.06 ± 0.17; (ubr1∆) 2.56 ± 0.088.

Consider NPIDPFNIIREFRSAAG [YDL116W/NUP84], for which the protein stability index was 3.14 ± 0.074 (doa10∆), 3.14 ± 0.07 (pdr5∆), 3.16 ± 0.043 (san1∆) and 3.09 ± 0.063 (ubr1∆).

On to GLHSSEYKLRSLTLSFI [ECM29], for which the protein stability index by setting is: (doa10∆) 2.18 ± 0.057; (pdr5∆) 2.21 ± 0.061; (san1∆) 2.41 ± 0.066; (ubr1∆) 2.46 ± 0.049.

For IHEIRLNTLNNVVEIWV [SIR3], the protein stability index was found to be 1.38 ± 0.051 (doa10∆), 1.44 ± 0.046 (pdr5∆), 1.46 ± 0.086 (san1∆) and 1.55 ± 0.038 (ubr1∆).

Turning to KIMPKDILQITKKPLMV [SIR4], the protein stability index is, setting by setting: (doa10∆) 2.62 ± 0.088; (pdr5∆) 2.79 ± 0.17; (san1∆) 2.32 ± 0.1; (ubr1∆) 2.56 ± 0.09.

Take AFGSSATDISGELRDYI [YJR042W/NUP85]: the protein stability index runs as follows: (doa10∆) 3.26 ± 0.14; (pdr5∆) 3.54 ± 0.13; (san1∆) 2.81 ± 0.11; (ubr1∆) 3.28 ± 0.083.

As for PNIMLIFGSGFGSADDT [FAS1], the protein stability index worked out at 3.07 ± 0.07 (doa10∆), 2.92 ± 0.073 (pdr5∆), 3.12 ± 0.067 (san1∆) and 2.24 ± 0.065 (ubr1∆).
